Data set [1] relates to HeLa Kyoto. The data set is described as follows: thermal stability score vs G1/S (z-score of summed log2 fold changes over temperatures); higher = more thermally stable than in G1/S.
The test system of data set [2] is HeLa Kyoto. The data set is described as follows: solubility change mitosis vs G1/S (difference of NP-40 vs SDS log2 ratios) (log2 ratio difference); higher = more soluble in mitosis.
The subject of data set [3] is HeLa Kyoto. The data set is described as follows: solubility in G1/S (NP-40 vs SDS abundance) (log2 ratio); higher = more soluble. As to conditions: cell cycle stage: G1/S.
The subject of data set [4] is HeLa Kyoto. The data set is described as follows: melting temperature (median over replicates), in situ; higher = more thermally stable.
Setting [5] is: cell cycle stage: early G1 (4.5 h after nocodazole release).

These results are taken from the supplement of paper PMC5998384.
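Throughout, for melting temperature (median over replicates), in situ: HeLa Kyoto cells synchronized by double thymidine or nocodazole block, proteins quantified by TMT10plex mass spectrometry, three independent biological replicates.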
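Throughout, for solubility change mitosis vs G1/S (difference of NP-40 vs SDS log2 ratios): synchronized HeLa Kyoto cells (double thymidine block for G1/S, nocodazole release for mitosis), protein amounts in NP-40 versus SDS lysates quantified by mass spectrometry, three biological replicates.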
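Throughout, for solubility in G1/S (NP-40 vs SDS abundance): HeLa Kyoto cells arrested at G1/S by double thymidine block, proteins quantified by TMT10plex mass spectrometry in mild NP-40 versus SDS extracts, three biological replicates.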
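Throughout, for thermal stability score vs G1/S (z-score of summed log2 fold changes over temperatures): synchronized HeLa Kyoto cells, proteins quantified by TMT10plex mass spectrometry, three biological replicates, mitosis taken 0.5 h after nocodazole release, G1/S directly after double thymidine block.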

Chain of STK24 (chain, as listed by the source): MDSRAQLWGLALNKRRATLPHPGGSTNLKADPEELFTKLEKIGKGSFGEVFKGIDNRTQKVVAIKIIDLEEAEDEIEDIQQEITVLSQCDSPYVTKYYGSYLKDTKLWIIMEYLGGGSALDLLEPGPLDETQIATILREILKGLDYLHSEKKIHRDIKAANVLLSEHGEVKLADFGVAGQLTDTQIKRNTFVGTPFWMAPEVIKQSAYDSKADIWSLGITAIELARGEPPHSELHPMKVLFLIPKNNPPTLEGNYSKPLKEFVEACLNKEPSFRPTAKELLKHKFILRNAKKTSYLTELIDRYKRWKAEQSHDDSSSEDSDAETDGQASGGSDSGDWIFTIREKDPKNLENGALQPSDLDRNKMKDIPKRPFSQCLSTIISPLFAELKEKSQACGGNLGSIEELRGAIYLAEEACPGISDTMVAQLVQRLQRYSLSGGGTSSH

Regarding ZZEF1, the thermal stability score with HeLa Kyoto [1] (setting [5]) came to 0.459; with HeLa Kyoto [1] (cell cycle stage: mitosis), 0.456. In addition, the “solubility change mitosis (log2)” value in the data set on HeLa Kyoto [2] is -0.0476. Also, in the data set on HeLa Kyoto [3], the “solubility in G1/S (log2)” value was -0.243. In addition, the results for the melting temperature in the data set on HeLa Kyoto [4] (cell cycle stage: G1/S) and in the data set with HeLa Kyoto [4] (cell cycle stage: mitosis) were 51.8 °C and 51.5 °C, respectively.
As to “MALGLKCFRMVHPTFRNYLAASIRPVSEVTLKTVHERQHGHRQYMAYSAVPVRHFATKKAKAKGKGQSQTRVNINAALVEDIINLEEVNEEMKSVIEALKDNFNKTLNIRTSPGSLDKIAVVTADGKLALNQISQISMKSPQLILVNMASFPECTAAAIKAIRESGMNLNPEVEGTLIRVPIPQVTREHREMLVKLAKQNTNKAKDSLRKVRTNSMNKLKKSKDTVSEDTIRLIEKQISQMADDTVAELDRHLAVKTKELLG [MRRF]”, the thermal stability score with HeLa Kyoto [1] (setting [5]) was -2.43; in the data set with HeLa Kyoto [1] (cell cycle stage: mitosis) it was -2.36. Moreover, in the data set on HeLa Kyoto [2], the “solubility change mitosis (log2)” value worked out at 0.328. Besides, in the data set with HeLa Kyoto [3], the “solubility in G1/S (log2)” value stood at 0.605. The figures for the melting temperature in the data set with HeLa Kyoto [4] (cell cycle stage: G1/S) and in the data set on HeLa Kyoto [4] (cell cycle stage: mitosis) were 50.1 °C and 51.3 °C, respectively.
Regarding STK24, the results for the thermal stability score with HeLa Kyoto [1] (setting [5]) and in the data set on HeLa Kyoto [1] (cell cycle stage: mitosis) were 4.29 and 2.12, respectively. In the data set with HeLa Kyoto [2], the “solubility change mitosis (log2)” value was -0.0565. The “solubility in G1/S (log2)” value in the data set on HeLa Kyoto [3] worked out at 0.479. Further, the melting temperature in the data set with HeLa Kyoto [4] (cell cycle stage: G1/S) is 51.7 °C; in the data set on HeLa Kyoto [4] (cell cycle stage: mitosis), 52.3 °C.
Turning to “MSEEIITPVYCTGVSAQVQKQRARELGLGRHENAIKYLGQDYEQLRVRCLQSGTLFRDEAFPPVPQSLGYKDLGPNSSKTYGIKWKRPTELLSNPQFIVDGATRTDICQGALGDCWLLAAIASLTLNDTLLHRVVPHGQSFQNGYAGIFHFQLWQFGEWVDVVVDDLLPIKDGKLVFVHSAEGNEFWSALLEKAYAKVNGSYEALSGGSTSEGFEDFTGGVTEWYELRKAPSDLYQIILKALERGSLLGCSIDISSVLDMEAITFKKLVKGHAYSVTGAKQVNYRGQVVSLIRMRNPWGEVEWTGAWSDSSSEWNNVDPYERDQLRVKMEDGEFWMSFRDFMREFTRLEICNLTPDALKSRTIRKWNTTLYEGTWRRGSTAGGCRNYPATFWVNPQFKIRLDETDDPDDYGDRESGCSFVLALMQKHRRRERRFGRDMETIGFAVYEVPPELVGQPAVHLKRDFFLANASRARSEQFINLREVSTRFRLPPGEYVVVPSTFEPNKEGDFVLRFFSEKSAGTVELDDQIQANLPDEQVLSEEEIDENFKALFRQLAGEDMEISVKELRTILNRIISKHKDLRTKGFSLESCRSMVNLMDRDGNGKLGLVEFNILWNRIRNYLSIFRKFDLDKSGSMSAYEMRMAIESAGFKLNKKLYELIITRYSEPDLAVDFDNFVCCLVRLETMFRFFKTLDTDLDGVVTFDLFKWLQLTMFA [CAPN1]”, the thermal stability score was -0.914 in the data set on HeLa Kyoto [1] (setting [5]) and -1.67 with HeLa Kyoto [1] (cell cycle stage: mitosis). Also, the “solubility change mitosis (log2)” value in the data set on HeLa Kyoto [2] is -0.164. Moreover, the “solubility in G1/S (log2)” value with HeLa Kyoto [3] is -0.203. Also, the melting temperature was found to be 55.9 °C in the data set with HeLa Kyoto [4] (cell cycle stage: G1/S) and 56.5 °C in the data set with HeLa Kyoto [4] (cell cycle stage: mitosis).
With “MEQWRQCGRWLIDCKVLPPNHRVVWPSAVVFDLAQALRDGVLLCQLLHNLSPGSIDLKDINFRPQMSQFLCLKNIRTFLKVCHDKFGLRNSELFDPFDLFDVRDFGKVISAVSRLSLHSIAQNKGIRPFPSEETTENDDDVYRSLEELADEHDLGEDIYDCVPCEDGGDDIYEDIIKVEVQQPMIRYMQKMGMTEDDKRNCCLLEIQETEAKYYRTLEDIEKNYMSPLRLVLSPADMAAVFINLEDLIKVHHSFLRAIDVSVMVGGSTLAKVFLDFKERLLIYGEYCSHMEHAQNTLNQLLASREDFRQKVEECTLKVQDGKFKLQDLLVVPMQRVLKYHLLLKELLSHSAERPERQQLKEALEAMQDLAMYINEVKRDKETLRKISEFQSSIENLQVKLEEFGRPKIDGELKVRSIVNHTKQDRYLFLFDKVVIVCKRKGYSYELKEIIELLFHKMTDDPMNNKDVKKSHGKMWSYGFYLIHLQGKQGFQFFCKTEDMKRKWMEQFEMAMSNIKPDKANANHHSFQMYTFDKTTNCKACKMFLRGTFYQGYMCTKCGVGAHKECLEVIPPCKFTSPADLDASGAGPGPKMVAMQNYHGNPAPPGKPVLTFQTGDVLELLRGDPESPWWEGRLVQTRKSGYFPSSSVKPCPVDGRPPISRPPSREIDYTAYPWFAGNMERQQTDNLLKSHASGTYLIRERPAEAERFAISIKFNDEVKHIKVVEKDNWIHITEAKKFDSLLELVEYYQCHSLKESFKQLDTTLKYPYKSRERSASRASSRSPASCASYNFSFLSPQGLSFASQGPSAPFWSVFTPRVIGTAVARYNFAARDMRELSLREGDVVRIYSRIGGDQGWWKGETNGRIGWFPSTYVEEEGIQ [VAV2]”, the thermal stability score in the data set with HeLa Kyoto [1] (setting [5]) is 0.0861; with HeLa Kyoto [1] (cell cycle stage: mitosis) it was 1.36. The “solubility change mitosis (log2)” value in the data set on HeLa Kyoto [2] is -0.269. In the data set with HeLa Kyoto [3], the “solubility in G1/S (log2)” value was -0.0231. In addition, the melting temperature in the data set with HeLa Kyoto [4] (cell cycle stage: G1/S) is 48.7 °C; in the data set with HeLa Kyoto [4] (cell cycle stage: mitosis) it was 48.9 °C.
On to “MALLALLLVVALPRVWTDANLTARQRDPEDSQRTDEGDNRVWCHVCERENTFECQNPRRCKWTEPYCVIAAVKIFPRFFMVAKQCSAGCAAMERPKPEEKRFLLEEPMPFFYLKCCKIRYCNLEGPPINSSVFKEYAGSMGESCGGLWLAILLLLASIAAGLSLS [LY6K]”, for which the thermal stability score came to 2.6 in the data set on HeLa Kyoto [1] (setting [5]) and 2.04 in the data set on HeLa Kyoto [1] (cell cycle stage: mitosis). Moreover, the “solubility change mitosis (log2)” value in the data set on HeLa Kyoto [2] is -0.107. Further, the “solubility in G1/S (log2)” value in the data set with HeLa Kyoto [3] was 0.0392. Further, the values for the melting temperature in the data set with HeLa Kyoto [4] (cell cycle stage: G1/S) and with HeLa Kyoto [4] (cell cycle stage: mitosis) were 52.6 °C and 52.9 °C, respectively.
